Results as given in patent US20240209100A1 (DIAGONAL THERAPEUTICS, published 2024).

T1: IL-18 receptor (IL-18Rα/IL-18Rβ) overexpressed on HEK-Blue IL-18 cells (Homo sapiens (Human), UniProt Q13478 19-541; O95256 20-599)
T1 sequence 1: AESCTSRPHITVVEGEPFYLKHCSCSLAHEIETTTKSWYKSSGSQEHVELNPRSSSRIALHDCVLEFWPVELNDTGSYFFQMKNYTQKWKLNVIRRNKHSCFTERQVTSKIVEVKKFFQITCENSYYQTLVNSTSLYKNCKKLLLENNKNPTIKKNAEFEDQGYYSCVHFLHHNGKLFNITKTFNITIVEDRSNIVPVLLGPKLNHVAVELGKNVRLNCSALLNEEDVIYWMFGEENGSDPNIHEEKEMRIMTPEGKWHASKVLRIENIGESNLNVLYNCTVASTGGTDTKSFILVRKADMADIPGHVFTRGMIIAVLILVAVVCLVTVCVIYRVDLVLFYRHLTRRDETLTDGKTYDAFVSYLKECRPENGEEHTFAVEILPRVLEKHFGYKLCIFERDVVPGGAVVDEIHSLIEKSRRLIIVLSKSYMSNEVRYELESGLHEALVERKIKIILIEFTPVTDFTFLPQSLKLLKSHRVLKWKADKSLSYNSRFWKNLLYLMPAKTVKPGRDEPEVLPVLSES
T1 sequence 2: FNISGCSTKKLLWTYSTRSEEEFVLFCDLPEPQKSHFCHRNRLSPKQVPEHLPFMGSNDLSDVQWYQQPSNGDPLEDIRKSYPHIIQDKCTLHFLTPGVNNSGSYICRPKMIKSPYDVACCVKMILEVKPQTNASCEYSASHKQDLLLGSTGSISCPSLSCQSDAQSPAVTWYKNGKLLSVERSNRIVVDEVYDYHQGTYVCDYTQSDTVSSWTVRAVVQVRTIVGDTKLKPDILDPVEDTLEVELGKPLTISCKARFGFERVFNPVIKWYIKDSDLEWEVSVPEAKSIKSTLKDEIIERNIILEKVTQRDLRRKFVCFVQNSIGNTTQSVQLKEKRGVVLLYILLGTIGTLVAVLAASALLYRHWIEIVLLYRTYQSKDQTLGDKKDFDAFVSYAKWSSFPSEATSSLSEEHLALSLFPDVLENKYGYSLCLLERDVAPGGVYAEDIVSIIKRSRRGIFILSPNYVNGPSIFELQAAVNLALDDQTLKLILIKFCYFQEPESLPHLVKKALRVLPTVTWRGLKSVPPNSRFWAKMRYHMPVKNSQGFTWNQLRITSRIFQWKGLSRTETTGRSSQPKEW

B1: DGL170 (bispecific antibody)
heavy 1: QVQLVESGGGLVQAGGSLRLSCVASGTFFQIHVMGWYRQAPGKQRELVAFIINNGGTRYADSVKGRFTISRDYAKNTVYLQMNSLKPEDTAVYYCNTEGTYRGRYSTDNWGQGTQVTVSSDKGPSVFPLAPEPKSSQVQLVESGGGLVQAGGSLRLSCAASGRTFSKHAMGWFRQAPGKEREFVAAIDWSGGSTYYADSVKGRFTISRDNAKNTVYLQMDSLKPEDTAVYYCAADSYTDYAQLWLPELESEYDYWGQGTQVTVSSDKTHTCPPCPAPEAAGGPSVFLFPPKPKDTLMISRTPEVTCVVVDVSHEDPEVKFNWYVDGVEVHNAKTKPREEQYNSTYRVVSVLTVLHQDWLNGKEYKCKVSNKALPAPIEKTISKAKGQPREPQVCTLPPSRDELTKNQVSLSCAVKGFYPSDIAVEWESNGQPENNYKTTPPVLDSDGSFFLVSKLTVDKSRWQQGNVFSCSVMHEALHNHYTQKSLSLSPG
heavy 2: not shown
B2: DGL164 (bispecific antibody)
heavy 1: QVQLVESGGGLVQAGGSLRLSCAASGRTFSSYTMGWFRQAPGKEREFVAAISWSAGRTYYADSVKGRFTISRDNAKNTVYLQMNSLKPEDTAVYFCAAEEAPDWAPIDCSGYGCLSLYDYWGQGTQVTVSSDKGPSVFPLAPEPKSSQVQLVESGGGLVQAGGSLRLSCAASQTGFNMNRMGWYRQAPGKQRELVATITGGGSTTYADSVKGRFDISRGNVENNLYLQMNSLKPEDTAVYYCNALLFGRDYWGQGTQVTVSSDKTHTCPPCPAPEAAGGPSVFLFPPKPKDTLMISRTPEVTCVVVDVSHEDPEVKFNWYVDGVEVHNAKTKPREEQYNSTYRVVSVLTVLHQDWLNGKEYKCKVSNKALPAPIEKTISKAKGQPREPQVCTLPPSRDELTKNQVSLSCAVKGFYPSDIAVEWESNGQPENNYKTTPPVLDSDGSFFLVSKLTVDKSRWQQGNVFSCSVMHEALHNHYTQKSLSLSPG
heavy 2: not shown
B3: DGL166 (bispecific antibody)
heavy 1: EVQLVESGGGLVQPGGSLRLSCAASGFFLDDYVLGWFRQAPGKPREGVSCISSRGRYLNYAETVKGRFTISRSNAKNTVYLQMNNLEPEDTAVYYCAAVRRVSEVCKLAEDDFASWGQGTQVTVSSGGGSQVQLVESGGGLVQAGDSLRLSCVASERTFSSYTMGWFRQAPGKEREFTAALSWWNGGISTAYADSVKGRFTISRDNAKNTVYLQMNSLKTEDTALYYCAAARDRMPRADEYDYWGQGTQVTVSSDKTHTCPPCPAPEAAGGPSVFLFPPKPKDTLMISRTPEVTCVVVDVSHEDPEVKFNWYVDGVEVHNAKTKPREEQYNSTYRVVSVLTVLHQDWLNGKEYKCKVSNKALPAPIEKTISKAKGQPREPQVCTLPPSRDELTKNQVSLSCAVKGFYPSDIAVEWESNGQPENNYKTTPPVLDSDGSFFLVSKLTVDKSRWQQGNVFSCSVMHEALHNHYTQKSLSLSPG
heavy 2: not shown
B4: DGL165 (bispecific antibody)
heavy 1: QVQLVESGGGLVQAGGSLRLSCAASGRTFSSYTMGWFRQAPGKEREFVAAISWSAGRTYYADSVKGRFTISRDNAKNTVYLQMNSLKPEDTAVYFCAAEEAPDWAPIDCSGYGCLSLYDYWGQGTQVTVSSGGGSEVQLVESGGGLVQAGGSLRLSCAASGRTFRNYHMGWFRQAPGQEREFVAAISSSGGKTSYPDSVNGRFTISRDNAKNTVYLQMNNLKVEDTAVYYCAADPRYWVAAGGSEPENVEVWGQGTLVTVSSDKTHTCPPCPAPEAAGGPSVFLFPPKPKDTLMISRTPEVTCVVVDVSHEDPEVKFNWYVDGVEVHNAKTKPREEQYNSTYRVVSVLTVLHQDWLNGKEYKCKVSNKALPAPIEKTISKAKGQPREPQVCTLPPSRDELTKNQVSLSCAVKGFYPSDIAVEWESNGQPENNYKTTPPVLDSDGSFFLVSKLTVDKSRWQQGNVFSCSVMHEALHNHYTQKSLSLSPG
heavy 2: not shown
B5: DGL167 (bispecific antibody)
heavy 1: QVQLVESGGGLVQAGGSLRLSCAASGRTFSKHAMGWFRQAPGKEREFVAAIDWSGGSTYYADSVKGRFTISRDNAKNTVYLQMDSLKPEDTAVYYCAADSYTDYAQLWLPELESEYDYWGQGTQVTVSSGGGSQVQLQESGGGLVQAGGSLKLSCQASGLTFKRNTMGWFRQAPGKEREFVAHFLWTGGETDYADAVKGRFTISRDNAKNTVYLQMNSLKPEDTAVYFCAANYAGYRIDGYQYWGQGTQVTVSSDKTHTCPPCPAPEAAGGPSVFLFPPKPKDTLMISRTPEVTCVVVDVSHEDPEVKFNWYVDGVEVHNAKTKPREEQYNSTYRVVSVLTVLHQDWLNGKEYKCKVSNKALPAPIEKTISKAKGQPREPQVCTLPPSRDELTKNQVSLSCAVKGFYPSDIAVEWESNGQPENNYKTTPPVLDSDGSFFLVSKLTVDKSRWQQGNVFSCSVMHEALHNHYTQKSLSLSPG
heavy 2: not shown
B6: DGL169 (bispecific antibody)
heavy 1: QVQLVESGGGLVQAGGSLRLSCAASGRTFSSYTMGWFRQAPGKEREFVAAISWSAGRTYYADSVKGRFTISRDNAKNTVYLQMNSLKPEDTAVYFCAAEEAPDWAPIDCSGYGCLSLYDYWGQGTQVTVSSGGGSQVQLVESGGGLVQAGGSLRLSCAASQTGFNMNRMGWYRQAPGKQRELVATITGGGSTTYADSVKGRFDISRGNVENNLYLQMNSLKPEDTAVYYCNALLFGRDYWGQGTQVTVSSDKTHTCPPCPAPEAAGGPSVFLFPPKPKDTLMISRTPEVTCVVVDVSHEDPEVKFNWYVDGVEVHNAKTKPREEQYNSTYRVVSVLTVLHQDWLNGKEYKCKVSNKALPAPIEKTISKAKGQPREPQVCTLPPSRDELTKNQVSLSCAVKGFYPSDIAVEWESNGQPENNYKTTPPVLDSDGSFFLVSKLTVDKSRWQQGNVFSCSVMHEALHNHYTQKSLSLSPG
heavy 2: not shown
B7: DGL168 (bispecific antibody)
heavy 1: QVQLVESGGGLVQAGGSLRLSCAASGRTFSSYNMGWFRQAPGKERESVAAISWSGGSSYYADSVKGRFTISRDNAKPTVYLQMNSLKPEDTAVYYCAADRDSEEWDGSSWFFKSDYWGQGTQVTVSSGGGSQVQLVESGGGLVQTGGPLRLSCAASGGTFSRYTMGWFRQAPGKEREYVAAISWRGSSIYYADAVKGRFTISRDSAKSTVYLQMNNLNSDDTAVYYCAADRTDLPRNAGEYGYWGQGTQVTVSSDKTHTCPPCPAPEAAGGPSVFLFPPKPKDTLMISRTPEVTCVVVDVSHEDPEVKFNWYVDGVEVHNAKTKPREEQYNSTYRVVSVLTVLHQDWLNGKEYKCKVSNKALPAPIEKTISKAKGQPREPQVCTLPPSRDELTKNQVSLSCAVKGFYPSDIAVEWESNGQPENNYKTTPPVLDSDGSFFLVSKLTVDKSRWQQGNVFSCSVMHEALHNHYTQKSLSLSPG
heavy 2: not shown
B8: DGL163 (bispecific antibody)
heavy 1: QVQLVESGGGLVQAGGSLRLSCAASGRTFSSYNMGWFRQAPGKERESVAAISWSGGSSYYADSVKGRFTISRDNAKPTVYLQMNSLKPEDTAVYYCAADRDSEEWDGSSWFFKSDYWGQGTQVTVSSDKGPSVFPLAPEPKSSQVQLVESGGGLVQTGGPLRLSCAASGGTFSRYTMGWFRQAPGKEREYVAAISWRGSSIYYADAVKGRFTISRDSAKSTVYLQMNNLNSDDTAVYYCAADRTDLPRNAGEYGYWGQGTQVTVSSDKTHTCPPCPAPEAAGGPSVFLFPPKPKDTLMISRTPEVTCVVVDVSHEDPEVKFNWYVDGVEVHNAKTKPREEQYNSTYRVVSVLTVLHQDWLNGKEYKCKVSNKALPAPIEKTISKAKGQPREPQVCTLPPSRDELTKNQVSLSCAVKGFYPSDIAVEWESNGQPENNYKTTPPVLDSDGSFFLVSKLTVDKSRWQQGNVFSCSVMHEALHNHYTQKSLSLSPG
heavy 2: not shown
B9: DGL162 (bispecific antibody)
heavy 1: QVQLVESGGGLVQAGGSLRLSCAASGRTFSKHAMGWFRQAPGKEREFVAAIDWSGGSTYYADSVKGRFTISRDNAKNTVYLQMDSLKPEDTAVYYCAADSYTDYAQLWLPELESEYDYWGQGTQVTVSSDKGPSVFPLAPEPKSSQVQLQESGGGLVQAGGSLKLSCQASGLTFKRNTMGWFRQAPGKEREFVAHFLWTGGETDYADAVKGRFTISRDNAKNTVYLQMNSLKPEDTAVYFCAANYAGYRIDGYQYWGQGTQVTVSSDKTHTCPPCPAPEAAGGPSVFLFPPKPKDTLMISRTPEVTCVVVDVSHEDPEVKFNWYVDGVEVHNAKTKPREEQYNSTYRVVSVLTVLHQDWLNGKEYKCKVSNKALPAPIEKTISKAKGQPREPQVCTLPPSRDELTKNQVSLSCAVKGFYPSDIAVEWESNGQPENNYKTTPPVLDSDGSFFLVSKLTVDKSRWQQGNVFSCSVMHEALHNHYTQKSLSLSPG
heavy 2: not shown

Target: T1, IL-18 receptor (IL-18Rα/IL-18Rβ) …
Assay: cell-based or functional assay

HEK-Blue IL-18: Abs 405 [Abs]	HEK-Blue IL-18: Fold over Background [fold]	Binder
0.23	1.9	B1
0.28	2.3	B2
0.12	1	B3
0.19	1.6	B4
0.66	5.5	B5
0.22	1.8	B6
0.62	5.1	B7
0.36	3	B8
0.79	6.6	B9
